# Laboratory results taken from the RNAGym collection of RNA variant scans (doi:10.1101/gr.219683.116).
# B1: mRNA-splicing (parent)
# chain: AGUUGCUGCUGGGAGCUCCAGCACAGUGAAAUGGACAGAAGGGCAGAGCAA
# Variants of: B1
# Test: exon inclusion enrichment index; higher = more inclusion; WT1 exon 5 minigene, HEK293
row,Variant,exon inclusion enrichment index
1,G5A C6G U7G C9A G12C G13C,0.00164
2,G5C C6U G8C C9U U10C G15A C16U,1.27
3,G5A C6U U7A G8U C9A G11C G12A,0.0128
4,G5A U7C G8A U10C C19U A20C,1.64
5,C6A U7A C9A U10A A14G G15A,0.841
6,G5A U7C G8A U10C A35C C36G,2.06
7,G5C C6U G8C C9U U10C A39U A40G,0.572
8,C6A U7C C9A U10C C16G U17A,3.24
9,G2A U3G G5C C6G U7C U10C,2.14
10,C6A U7C C9A U10C U17A C18A,3.1
11,C6A U7C C9A U10C G13U,1.08
12,G5C C6G U7C U10C G28C,2.68
13,C6A U7C C9A U10C A30G A31U,1.6
14,G5A C6G U7G C9A C44G A45U,0.00421
15,G5U G8U C9U A20C G21A,0.0355
16,G5C C6U G8C C9U U10C G12C G13C,0.312
17,C6A U7C C9A U10C A29G,3.29
18,U4C G5A U7C G8A U10C,3.18
19,G5A U7C G8A U10C G28C A29G,3.25
20,G5A C6U U7A G8U C9A A29G A30G,0.0286
21,C6A U7A C9A U10A G33C G34U,0.522
22,U3A U4C G5U G8U C9U,0.407
23,C6A U7C C9A U10C G13U A14C,2.46
24,G5A U7C G8A U10C G13U A14C,1.41

row,Variant,exon inclusion enrichment index
1,G5A U7C G8A U10C C44U A45U,1.51
2,G5A U7C G8A U10C C44U A45G,1.53
3,C6G U7G C9A U10C,0.246
4,G5C C6A U7C G8A U10A A31C U32C,0.385
5,C6A C9A U10C,2.01
6,C6A C9A U10A,0.333
7,C6A U7A C9A U10A C24G,0.763
8,G5C C6A G8A U10A,0.0612
9,G5U G8U C9U G11A G12A,0.00894
10,G5C C6G U7C U10C G15C C16G,3.66
11,G5A C6G U7G C9A G42C,0.0041
12,G43C,0.209
13,G5U G8U C9U A14C G15A,0.0209
14,G5C C6U G8C C9U U10C G13U A14G,0.52
15,G38U A39U,0.000945
16,G5C C6G U7C U10C A31U U32G,2.24
17,G5C C6U G8U C9U,0.106
18,G5C C6U G8C C9U U10C G21U C22A,0.661
19,G5C C6U G8U C9U U10C,0.615
20,C6A U7G C9A U10C,0.53
21,G5U G8U C9U G21A C22G,0.143
22,G5A U7C G8A U10C G42C,3.71
23,C6A U7A C9A U10A A29C,0.513
24,G5U G8U C9U C44G,0.278

row,Variant,exon inclusion enrichment index
1,G5C C6U G8C C9U U10C G13A A14C,2.59
2,C6A U7C C9A G11A,0.337
3,G5U G8U C9U G15A C16U,0.0203
4,U4G G5C C6A U7C C9A U10C,2.46
5,G5C C6U G8A C9U U10C,0.941
6,G5C C6G U7C U10C A31G,3.79
7,G5A C6G U7G C9A G33U,0.000815
8,G5A C6G U7G C9A G33A,0.000879
9,C6A U7A C9U U10A,0.0203
10,G5C C6G U7C U10C C19U A20C,3.09
11,G5A U7C G8A U10C C19G A20G,1.34
12,G5U G8U C9U U10C G11C,0.932
13,G38A A39U,0.00515
14,G38A A39C,0.13
15,C6A U7C C9A U10C C22A A23G,3.9
16,U3A U4G G5C C6G U7C U10C,1.31
17,C6A U7C C9A U10C A39C A40U,3.22
18,C6A U7C C9A U10C A39C A40G,3.55
19,G38C A39C,0.158
20,G5C C6A U7C G8A U10A C18G C19G,0.186
21,A35U C36G,0.00845
22,G5C C6U U7G C9A,1.42
23,G5C C6G U7C U10G,1.86
24,G26A,0.0943

row,Variant,exon inclusion enrichment index
1,G5A C6G U7G C9A A20G G21A,0.00277
2,G5A C6U U7A G8U C9A A20U,0.0779
3,G5C C6U G8C C9U U10C A14C G15U,0.523
4,G5A C6G U7G C9A G43U C44U,0.00214
5,G5U G8U C9U G21U C22A,0.0438
6,C6A U7A C9A U10A A35U C36U,0.00621
7,G5U G8U C9U G38A A39G,0.151
8,G5U G8U C9U G38A A39U,0.00274
9,C6A U7A C9G U10G,0.0939
10,G5C C6U G8C C9U U10C G26U U27C,3.41
11,G5A U7C G8A U10C C24A A25C,3.6
12,G5C C6U G8C C9U U10G G11A,2
13,G5C C6A U7C G8A U10A A30C,0.0836
14,G5C C6U G8C C9U U10C G13C A14C,1.15
15,G5C C6U C9G U10C,1.31
16,G5U G8U C9U U32G,0.00207
17,C6A U7A C9A U10A G15U C16G,0.298
18,G5A C6G U7G G8U,0.00501
19,G5A C6U U7A G8U C9A A20C G21A,0.0479
20,G5A C6G U7G C9A C22U A23G,0.00203
21,G5C C6U G8C C9U U10C A47G G48A,1.24
22,G5A C6U U7A G8U C9A A37U,0.0684
23,G5C C6G U7C U10C A14U G15C,1.8
24,G5U G8U C9U A25C G26C,0.215

row,Variant,exon inclusion enrichment index
1,G5C C6U G8C C9U U10C A20C G21A,0.599
2,G5C C6A U7C G8A U10A A47U G48A,0.071
3,C6A U7A G8C C9U U10A,0.0222
4,C6A U7C C9A U10C C36G A37U,1.89
5,C6A U7C C9A U10C A23C,3.27
6,U4C G5C G8U C9U,0.112
7,C6A U7C C9A U10C C19U A20G,1.79
8,G5A C6U U7A G8U C9A A35G C36G,0.00488
9,G5C C6U G8C C9U U10C G21C C22G,3.01
10,G5C C6G U7C U10C U17A C18A,2.9
11,C6A U7C C9A U10C A23U C24G,3.98
12,G5A U7C G8A U10C C36U A37U,1.38
13,G5U G8U C9U A29G A30U,0.0242
14,G2U U3G C6A U7C C9A U10C,4.84
15,C6A U7A C9A U10A C16G U17G,0.02
16,G5C C6G U7C U10C G41U,3.2
17,G5C C6G U7C U10C G41C,4.53
18,G5U G8U C9U G12A G13U,0.000463
19,C6A U7A C9A U10A A29G A30U,0.163
20,G5C C6U G8C C9U U10C A30C,2.23
21,G5C C6U G8C C9U U10C A30U,1.34
22,G5C C6A U7C G8A U10A C24G,0.119
23,G5A U7C G8A U10C G46C,2.03
24,C6A U7A C9A U10A A20U,0.829

row,Variant,exon inclusion enrichment index
1,C6A U7C C9A U10C U27G G28A,3.19
2,G5A C6G,0.00371
3,U7C G8U,1.05
4,G5C C6A U7C G8A U10A C24A A25G,0.156
5,C6A U7A C9A U10A C36A,0.531
6,G5A U7C G8A C9A U10A,0.384
7,G5U G8U C9U A45G G46U,0.0933
8,C6A U7C C9A U10C G33U,1.97
9,C6A U7C C9A U10C G33C,3.45
10,C6A U7A C9A U10A A35C C36U,0.0347
11,G5U C6G U7C G8A U10A,0.1
12,C6A U7C C9A U10C A20U G21A,2.77
13,C6A U7A C9A U10A A20C G21U,0.286
14,C6A U7A C9A U10A A20C G21C,0.209
15,G5C C6A U7C G8A U10A G42C G43U,0.483
16,C6A U7A C9A U10A G43U,0.644
17,C6A U7A C9A U10A G43C,1
18,G5A U7C C9A,2.07
19,G5C C6G U10C,2.11
20,G5C C6A U7C G8A U10A A14U G15U,0.0233
21,C6A U7C C9A U10C C18U C19A,0.757
22,G5A C6U U7A G8U C9A A37G G38C,0.113
23,G5C C6G U7C U10C A23U,2.51
24,G5A C6U C9A,0.306

row,Variant,exon inclusion enrichment index
1,G5C C6G U7C U10C C16U U17G,3.07
2,G5A C6G U7G C9A A45U G46A,0.00219
3,C6A U7A C9A U10A G28C A29G,1.45
4,G5A U7C G8A U10C C19A A20G,0.441
5,U4C G5C C6A U7C C9A U10C,3.54
6,G5C C6U G8C C9U U10C U17C C18U,1.9
7,C6G U7C C9A U10A,0.988
8,C6A U7C C9A U10C G42U G43C,2.05
9,G5A C6U U7A G8U C9A C22U,0.0424
10,G5C C6G U7C U10C G33U G34A,0.696
11,A29G A30C,0.0218
12,U3C U4G G5A C6G U7G C9A,0.106
13,C6A U7C C9A U10C A40C G41U,1.87
14,G5U G8U C9U A39C A40G,0.162
15,G5U G8U C9U A39C A40U,0.141
16,G5U C6A U7A G8U C9U,0.0678
17,G5A U7C G8A U10C G15U C16U,1.86
18,C6A U7A C9A G11U,2.86
19,C6A U7C C9A U10C A37C G38U,2.3
20,G5A U7C G8A U10C A14G G15C,1.06
21,C6A U7A C9A U10A A25G G26A,2.29
22,G11A G12C,1.9
23,C6A U7C C9A U10C A25G,4.53
